The star is where a group is joined. Biotin = O=C1N[C@H]2[C@H](CS[C@H]2CCCCC(=O)*)N1; Ahx = NCCCCCC(=O)O
Key:
[1] = system: IgG and IgA antibodies in sera from patients infected with GBS; assay: Peptide ELISA of FbsA peptides with human sera; type: binding; details: five sera, dilutions 1:200 and 1:1,000
Source text: The 5 biotinylated peptides (wild type <1>: GNVLERRQRDAENRSQ SEQ ID No. 113; alanine mutant peptides: <2> GAVLERRQRDAENRSQ SEQ ID No. 207, <3> GNALERRQRDAENRSQ SEQ ID No. 208, <4> GNVLEARQRDAENRSQ SEQ ID No. 211, <5> GNVLERAQRDAENRSQ SEQ ID No. 212; see also FIG. 11) were coated on Streptavidin-coated ELISA plates and analysed using 5 sera from patients infected with GBS. The patient sera were applied in a dilution of 1:200 and 1:1,000. IgG (A) and IgA (B) antibodies were detected with secondary anti-human antibodies coupled to Horse Radish Peroxidase and ABTS as substrate.
Biotin-labeled peptides were coating on Streptavidin ELISA plates (EXICON) at 10 μg/ml concentration according to the manufacturer's instructions. Sera were tested at two dilutions, 200× and 1,000×.
Highly specific Horse Radish Peroxidase (HRP)-conjugated anti-human IgG or anti-human IgA secondary antibodies (Southern Biotech) were used according to the manufacturers' recommendations (dilution: 1,000×). Antigen-antibody complexes were quantified by measuring the conversion of the substrate (ABTS) to colored product based on OD405nm readings in an automated ELISA reader (TECAN SUNRISE). Following manual coating, peptide plates were processed and analyzed by the Gemini 160 ELISA robot (TECAN) with a built-in reader (GENIOS, TECAN).

[2] = target: T1, human fibrinogen (Homo sapiens, UniProt P02671+P02675+P02679); assay: Western blot of fusion proteins for fibrinogen binding; details: His-tagged fusion proteins separated by SDS-PAGE, blotted, probed with human fibrinogen
T1 construct: purchased Sigma-Aldrich
Source text: The fibrinogen binding activity of the three proteins encoded by different constructs are indicated below the schematic FbsA drawing.
The fusion proteins were size-separated by SDS-PAGE, transferred onto a nitrocellulose membrane and tested for fibrinogen binding by Western blotting. Bound fibrinogen was detected with rabbit anti-fibrinogen antibodies, followed by peroxidase-labelled goat anti-rabbit antibodies, and visualized by chemiluminescence. PabC and Gbs0851: full-length fusion proteins; PabC-N: N-terminal 388 amino acids of PabC; PabC-C: C-terminal 222 amino acids of PabC. (C) Identification of the FbsA and PabC-binding sites within human fibrinogen by Western blot analysis. […] Bound fusion proteins were detected with mouse anti-HisTag antibodies, followed by peroxidase-conjugated goat anti-mouse IgG fab fragments and visualized by chemiluminescence. […]
Membranes that had been blocked overnight were incubated for 1 h with 2 μg/ml of human fibrinogen. […] After three washes with PBST and two washes with PBS, bound fibrinogen was detected by chemiluminescence using the ECL-kit (Amersham/Pharmacia). In control experiments, no cross-reactivity of the used antibodies with the immobilized proteins and peptides was detected.

[3] = system: GBS 6313; assay: Competitive inhibition of 125I-labelled fibrinogen binding to GBS; design: species or system Streptococcus agalactiae; details: increasing concentrations of purified fusion protein
Protocol: FbsA-9 differs from FbsA-19 in that it contains only 9 repeats in its repeat domain. The binding assay was performed with ^125I-labelled fibrinogen in the presence of different concentrations of each fusion protein. Each experiment was performed at least in triplicate.
Each experiment was performed at least in triplicate.
Purified human fibrinogen was radiolabelled with ^125I, using the chloramin T method (Hunter and Greenwood, 1962). Binding of labelled fibrinogen to GBS was performed essentially as described by Chhatwal et al. (Chhatwal, Muller, and Blobel, 1983). Briefly, overnight cultures of GBS were pelleted by centrifugation, washed twice with phosphate-buffered saline supplemented with 0.02% Tween 20 (PBST) and adjusted photometrically to a transmission of 10% at 600 nm. A total of 0.2 ml of the bacterial suspension was added to 20 μl of ^125I-labelled fibrinogen containing 23 ng of fibrinogen. After incubation for 1 h at room temperature, the streptococci were sedimented by centrifugation and washed with 1 ml of PBST. The radioactivity of the pellet was finally measured in a gamma counter (Packard Instruments). The amount of bacterial-bound fibrinogen was calculated as the percentage of total radiolabelled fibrinogen added to the bacteria. In inhibition experiments, the binding of 23 ng of radiolabelled fibrinogen to 0.2 ml of GBS (T=10%) was determined in the presence of various amounts of FbsA fusion proteins, Bsp fusion protein or synthetic peptides. Each experiment was repeated at least three times in triplicate.

[4] = system: A549 cells; assay: Epithelial cell adherence and internalization assay of GBS 6313 in presence of proteins; type: cell-based, human; details: pre-treatment of A549 cells with increasing amounts of protein
Protocol: The adherence of GBS 6313 to A549 cells (A) and its internalization into these cells (B) was arbitrarily set to 100% and the results obtained in the presence of the different fusion proteins was related to these values. Each experiment was performed at least three times in triplicate.
Adherence of GBS to epithelial cells and internalization into epithelial cells was assayed essentially as described previously (Caparon et al., 1991; Rubens et al. 1992). Briefly, A549 cells were transferred to 24-well tissue culture plates at approximately 4×10^5 cells per well and cultivated overnight in RPMI (Gibco BRL) tissue culture medium, supplemented with 10% of fetal calf serum. After replacement of the medium with 1 ml of fresh medium, the cells were infected with 5×10^6 streptococci per well and incubated at 37° C. for 2 h. The non-adherent bacteria were removed by washing three times with PBS. In adherence assays, the epithelial cells were subsequently detached from the well by the addition of trypsin/EDTA and lysed by adding 300 μl of distilled water. Adherent bacteria were quantitated by plating serial dilutions of the lysate onto THY agar plates. For internalization assays the epithelial cells were incubated after 2 h of infection for another 2 h in tissue culture medium supplemented with penicilling G (10 U) and streptomycin (0.01 mg) to kill extracellular bacteria. After three washes with PBS, the epithelial cells were detached by the addition of trypsin/EDTA and lysed in 300 μl of distilled water. The amount of intracellular bacteria was quantified by plating serial dilutions of the lysate onto THY agar plates. Each experiment was repeated at least three times in triplicate. […]
Adherence of S. agalactiae to A549 and HEL299 cells and internalization into these cells was assayed essentially as described in Example 1 for A549 cells. In some experiments, A549 cells were preincubated with different amounts of FbsA protein or FbsA-derived peptides in RPMI medium for 30 min with three subsequent washes with PBS.

[5] = system: A549 cells; assay: Interaction of protein-coated latex beads with A549 cells (scanning electron microscopy); type: cell-based, human
Protocol: BSA-coated latex beads were used as a control.
Latex beads were either coated with BSA (A) or FbsA fusion protein (B-D) and the interaction of the coated beads with the lung epithelial cell line A549 was analyzed by scanning electron microscopy.
Approximately […] latex beads (3 μm diameter, Sigma) were washed tree times in PBS and then coated with 300 μg of fusion protein or BSA in 500 μl PBS overnight at 4° C. Coated beads were washed once in PBS and then blocked with 200 μl of 10 mg/ml BSA in PBS for 1 h at room temperature. Beads were washed twice in PBS and once in RPMI+10% FCS and then resupended in 1 ml of RPMI+10% FCS. 300 μl of beads were added to approximately 4×10^5 A549 cells in 24-well plates. The cells were incubated for 1 h at 37° C. (5% CO2), washed five times with PBS and fixed in a solution containing 3% glutaraldehyde and 5% formaldehyde in cacodylate bluffer for 45 min on ice. The samples were washed with cacodylate buffer, dehydrated in a graded series of acetone and subjected to critical point drying with CO2. Samples were then coated with a 10 nm thick gold film and examined by scanning electron microscopy as described previously (Reinscheid et al., 2001a).
Approximately 1×10^9 latex beads (3 μm diameter, Sigma) were washed three times in 25 mM 2-N-morpholinoethanesulfonic acid (MES), pH 6.8. One half was resuspended in 1.0 ml MES buffer containing 500 μg/ml FbsA fusion protein and the remaining half was resuspended in 1.0 ml MES buffer. The beads were incubated overnight at 4° C. with end-over-end rotation. After pelleting of the beads by centrifugation, the amount of remaining protein in the supernatant was determined with a Bradford protein assay kit (BioRad). The beads were washed once with MES buffer and blocked for 1 h with 10 mg/ml BSA in MES buffer at room temperature. The beads were washed twice with MES buffer, once with RPMI+10% FCS, and resuspended in RPMI+10% FCS. Confluent A549 cells in 24-well plates were inoculated with 2×10^8 beads per well in a total volume of 1.0 ml. The bead monolayer mixtures were incubated for 2 h at 37° C. in a 5% CO2 atmosphere. Cells were washed five times with PBS and fixed with 3% paraformaldehyde and 4% glutaraldehyde in […] cacodylate buffer for scanning electron microscopy. Scanning electron microscopy was performed with a Zeiss DSM 962 microscope.

T1 sequence (P02675 31-491): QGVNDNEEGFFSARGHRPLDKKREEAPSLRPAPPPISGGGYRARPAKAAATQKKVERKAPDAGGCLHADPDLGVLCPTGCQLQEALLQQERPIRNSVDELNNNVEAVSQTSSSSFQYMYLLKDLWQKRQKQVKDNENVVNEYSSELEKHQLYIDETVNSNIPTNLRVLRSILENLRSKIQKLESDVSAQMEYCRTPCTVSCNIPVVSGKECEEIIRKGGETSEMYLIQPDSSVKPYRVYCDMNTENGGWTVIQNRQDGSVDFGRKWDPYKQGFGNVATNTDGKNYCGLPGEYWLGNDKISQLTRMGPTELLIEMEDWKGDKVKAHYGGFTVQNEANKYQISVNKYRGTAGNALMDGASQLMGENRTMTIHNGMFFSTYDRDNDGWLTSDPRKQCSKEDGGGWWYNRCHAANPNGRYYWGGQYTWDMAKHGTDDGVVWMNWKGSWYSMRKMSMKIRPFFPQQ
T1 sequence (P02679 27-433): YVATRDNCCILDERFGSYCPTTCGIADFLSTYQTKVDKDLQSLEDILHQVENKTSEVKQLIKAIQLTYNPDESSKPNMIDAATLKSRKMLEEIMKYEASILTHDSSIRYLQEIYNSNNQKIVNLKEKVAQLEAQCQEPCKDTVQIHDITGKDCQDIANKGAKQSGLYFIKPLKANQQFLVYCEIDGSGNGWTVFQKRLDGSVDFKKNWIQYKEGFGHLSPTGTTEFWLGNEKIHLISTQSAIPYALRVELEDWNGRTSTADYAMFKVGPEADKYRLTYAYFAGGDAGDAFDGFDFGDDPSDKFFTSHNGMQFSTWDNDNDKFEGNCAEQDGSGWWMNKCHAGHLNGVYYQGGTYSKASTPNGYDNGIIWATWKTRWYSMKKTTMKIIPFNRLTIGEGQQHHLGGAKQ
T1 sequence (P02671 20-629): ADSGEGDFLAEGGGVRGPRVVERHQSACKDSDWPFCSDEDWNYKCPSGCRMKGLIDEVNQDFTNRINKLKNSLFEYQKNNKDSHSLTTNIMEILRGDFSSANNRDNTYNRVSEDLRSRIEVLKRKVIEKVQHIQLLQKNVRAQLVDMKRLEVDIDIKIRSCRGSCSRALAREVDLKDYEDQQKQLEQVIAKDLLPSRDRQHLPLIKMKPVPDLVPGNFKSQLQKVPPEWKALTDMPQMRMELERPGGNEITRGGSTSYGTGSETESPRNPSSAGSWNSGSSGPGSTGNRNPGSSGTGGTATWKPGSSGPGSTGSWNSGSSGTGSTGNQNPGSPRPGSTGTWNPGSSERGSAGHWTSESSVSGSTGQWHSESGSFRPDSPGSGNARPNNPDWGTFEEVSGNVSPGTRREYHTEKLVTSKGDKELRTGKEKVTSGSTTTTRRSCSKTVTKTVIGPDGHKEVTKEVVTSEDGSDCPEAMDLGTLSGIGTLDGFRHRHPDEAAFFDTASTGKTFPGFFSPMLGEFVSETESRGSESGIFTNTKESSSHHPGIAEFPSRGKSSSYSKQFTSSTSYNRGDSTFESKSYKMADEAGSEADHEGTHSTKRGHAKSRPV

Row | Molecule | reactivity of biotinylated peptides with IgA and IgG antibodies of patient sera [1] | fibrinogen binding in Western blot [2] | inhibition of binding of 125I-labelled fibrinogen to GBS 6313 [3] | adherence of S. agalactiae 6313 to A549 cells after pre-treatment of the cells [4] | invasion of A549 cells by S. agalactiae 6313 after pre-treatment of the cells [4] | binding of protein-coated latex beads to A549 cells [5] | internalization of protein-coated latex beads into A549 cells [5]
1 | GNVLERAQRDAENRSQ ({Biotin-Ahx}-GNVLERAQRDAENRSQ-NH2; SMILES CC(C)C[C@H](NC(=O)[C@@H](NC(=O)[C@H](CC(N)=O)NC(=O)CNC(=O)CCCCCNC(=O)CCCC[C@@H]1SC[C@@H]2NC(=O)N[C@@H]21)C(C)C)C(=O)N[C@@H](CCC(=O)O)C(=O)N[C@@H](CCCNC(=N)N)C(=O)N[C@@H](C)C(=O)N[C@@H](CCC(N)=O)C(=O)N[C@@H](CCCNC(=N)N)C(=O)N[C@@H](CC(=O)O)C(=O)N[C@@H](C)C(=O)N[C@@H](CCC(=O)O)C(=O)N[C@@H](CC(N)=O)C(=O)N[C@@H](CCCNC(=N)N)C(=O)N[C@@H](CO)C(=O)N[C@@H](CCC(N)=O)C(N)=O) [peptide 5] | less well recognized by all sera | – | – | – | – | – | –
2 | GNVLERRQRDAENRSQ ({Biotin-Ahx}-GNVLERRQRDAENRSQ-NH2; SMILES CC(C)C[C@H](NC(=O)[C@@H](NC(=O)[C@H](CC(N)=O)NC(=O)CNC(=O)CCCCCNC(=O)CCCC[C@@H]1SC[C@@H]2NC(=O)N[C@@H]21)C(C)C)C(=O)N[C@@H](CCC(=O)O)C(=O)N[C@@H](CCCNC(=N)N)C(=O)N[C@@H](CCCNC(=N)N)C(=O)N[C@@H](CCC(N)=O)C(=O)N[C@@H](CCCNC(=N)N)C(=O)N[C@@H](CC(=O)O)C(=O)N[C@@H](C)C(=O)N[C@@H](CCC(=O)O)C(=O)N[C@@H](CC(N)=O)C(=O)N[C@@H](CCCNC(=N)N)C(=O)N[C@@H](CO)C(=O)N[C@@H](CCC(N)=O)C(N)=O; listed as Streptococcus agalactiae) [wild type peptide] | less well recognized by all sera | – | – | – | – | – | –
3 | FbsA-19: hexahistidyl-tagged FbsA protein from S. agalactiae 6313 with 19 repeats, devoid of signal peptide and membrane-spanning region (protein, left off: small tags and cut ends, hexahistidyl-tagged FbsA protein from S. agalactiae 6313 with 19 repeats, devoid of signal peptide and membrane-spanning region) MDSVGNQSQGNVLERRQRDAENRSQGNVLERRQRDVENKSQGNVLERRQRDAENKSQGNVLERRQRDAENRSQGNVLERRQRDAENRSQGNVLERRQRDAENRSQGNVLERRQRDAENRSQGNVLERRQRDAENRSQGNVLERRQRDVENKSQGNVLERRQRDAENKSQGNVLERRQRDAENRSQGNVLERRQRDAENRSQGNVLERRQRDAENRSQGNVLERRQRDAENRSQGNVLERRQRDAENRSQGNVLERRQRDAENRSQGNVLERRQRDAENRSQGNVLERRQRDAENRSQGNVLERRQRDAENKSQVGQLIGKNPLLSKSIISRENNHSSQGDSNKQSFSKKVSQVTNVANRPMLTNNSRTISVINKLPKTGDDQNV | – | binding to human fibrinogen | substantially inhibited | substantially inhibited | substantially inhibited | in high numbers | observed rather rarely

Source: patent US7485710B2, “Nucleic acids coding for adhesion factor of group B streptococcus, adhesion factors of group B streptococcus and further uses thereof” (priority 2002, dated 2009)
